The assay concerns the target GOLD domain of human TMED1 (p24γ1), signal peptide-free (human) (UniProt Q13445). Briefly: SEC. A general note: In gel filtration, larger molecules generally elute earlier.

The source of these data is publication doi:10.1101/2021.02.13.431076.

In general, stoichiometry N refers to a count of units in the complex or per binding partner. For the substance “GOLD domain of human TMED1 (p24γ1), signal peptide-free (from UniProt Q13445 24-130) (domain or fragment)”, the stoichiometry N came to 2.
